Assays:
[1] = test system: T1, wild type Penicillium oxalicum glucoamylase
T1 sequence: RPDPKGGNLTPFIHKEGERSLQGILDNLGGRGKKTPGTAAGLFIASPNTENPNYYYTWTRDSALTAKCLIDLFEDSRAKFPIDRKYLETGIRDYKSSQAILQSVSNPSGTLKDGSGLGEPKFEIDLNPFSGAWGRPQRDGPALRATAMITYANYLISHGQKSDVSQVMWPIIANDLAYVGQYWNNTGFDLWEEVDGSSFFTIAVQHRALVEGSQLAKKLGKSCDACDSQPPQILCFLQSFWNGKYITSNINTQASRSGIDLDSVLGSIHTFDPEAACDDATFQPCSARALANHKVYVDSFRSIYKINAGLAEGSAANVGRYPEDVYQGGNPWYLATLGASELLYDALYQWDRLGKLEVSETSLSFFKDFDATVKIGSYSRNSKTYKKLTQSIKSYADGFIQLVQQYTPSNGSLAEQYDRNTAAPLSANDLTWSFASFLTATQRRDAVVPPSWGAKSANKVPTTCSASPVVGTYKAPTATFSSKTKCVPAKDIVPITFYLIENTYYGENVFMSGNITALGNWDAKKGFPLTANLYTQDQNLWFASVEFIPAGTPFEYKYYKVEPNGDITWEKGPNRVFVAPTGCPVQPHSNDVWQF

[2] = molecular target: Glucoamylase PE001: variant of the Penicillium oxalicum glucoamylase having a K79V substitution (Penicillium oxalicum); test: cell-based or functional assay
[3] = molecular target: wild type Penicillium oxalicum glucoamylase (Penicillium oxalicum); test: cell-based or functional assay

| intact glucoamylase (ca. 70 kDa), SDS-PAGE after protease treatment overnight at 4 °C [2] [%] | intact glucoamylase (ca. 70 kDa), SDS-PAGE after protease treatment overnight at 32 °C [2] [%] | intact glucoamylase (ca. 70 kDa), SDS-PAGE after protease treatment overnight at 4 °C [3] [%] | intact glucoamylase (ca. 70 kDa), SDS-PAGE after protease treatment overnight at 32 °C [3] [%] | Substance | cleaved glucoamylase (ca. 60 kDa), SDS-PAGE after protease treatment overnight at 4 °C [1] [%] | cleaved glucoamylase (ca. 60 kDa), SDS-PAGE after protease treatment overnight at 32 °C [1] [%] |
| --- | --- | --- | --- | --- | --- | --- |
|  |  |  |  | aorsin | 60 | 90 |
| 100 | 100 | 40 | 10 | aorsin (enzyme) |  |  |
|  |  |  |  | aspergillopepsin I |  | 10 |
| 100 | 100 | 100 | 90 | aspergillopepsin I (enzyme) |  |  |
